The target of assay [1] is T1, his-tagged recombinant huCEACAM3 (R&D Systems, #9868-CM) (human, UniProt P40198 35-155).
T1 construct: Bought reagent; also called rec. hCEACAM3; recombinant soluble human CEACAM3; not shown: His tag
T1 sequence (looked up): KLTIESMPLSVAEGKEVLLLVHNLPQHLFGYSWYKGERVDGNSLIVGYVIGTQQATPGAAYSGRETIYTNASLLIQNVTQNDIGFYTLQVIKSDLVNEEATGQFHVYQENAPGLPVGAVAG
The assay can be described thus: BLI (Octet), from Table 2. On the procedure:
The affinity of the anti-human CEACAM5 arm of the CD47×CEACAM5 bispecific antibodies of the invention for recombinant soluble human CEACAM5 was determined using the Bio-Layer Interferometry (BLI) technology. An OctetRED96 instrument and Protein A biosensors were used (Sartorius). The measurement was performed at 30° C. After hydration, pre-conditioning and a baseline step in Kinetic buffer (PBS, 0.002% Tween 20, 0.01% BSA, Kathon; Sartorius), biosensors were loaded for 5 min with the κλ body at 0.5 μg/mL in Kinetic buffer. Then, biosensors were dipped into a serial dilution of recombinant human CEACAM5 Extra Cellular Domain (ECD) soluble protein (produced in house), starting at 50 nM with a 2× dilution factor. The association and dissociation phases were monitored for 600 seconds each. Biosensors were regenerated using 10 mM glycine pH 1.7. A standard acquisition rate was applied (5.0 Hz, averaging by 20). Curves were processed with a reference well subtraction, a Y alignment on the baseline, without interstep correction. The affinity was measured applying a 1:1 global fitting model on the full association and dissociation steps. The binding affinity (KD) of the bispecific antibodies of the invention to recombinant human CD47 was determined by the same experimental procedure.
The affinity of the anti-human CEACAM5 arms of the CD47×CEACAM5 bispecific antibodies of the invention for recombinant soluble human CEACAM3 was determined using the Bio-Layer Interferometry (BLI) technology and an OctetRED96 instrument. HIS1K biosensors (Sartorius), loaded with an anti-His tag antibody, were used to capture his-tagged recombinant huCEACAM3 (R&D Systems, #9868-CM). The measurement was performed at 30° C. After hydration, pre-conditioning and a baseline step in Kinetic buffer (PBS, 0.002% Tween 20, 0.01% BSA, Kathon; Sartorius), biosensors were loaded for 5 min with the recombinant huCEACAM3 at 5 μg/mL in Kinetic buffer. Then, biosensors were dipped into a serial dilution of k bodies, starting at 667 nM with a 2× dilution factor. The association and dissociation phases were monitored for 60 seconds and 120 seconds respectively. Biosensors were regenerated using 10 mM glycine pH 1.7.
A general note: In BLI a coated tip is dipped into the sample, and binding shifts an interference pattern.

Assay [2] deals with T2, human CEACAM5 on CEACAM5-expressing cancer cell lines (human, UniProt P06731 35-685).
T2 construct: whole, on cells; also called CEACAM5 on SK-CO-1, MKN-45, HPAF-II, SNU-C1, Ls174T, LoVo cells
T2 sequence (looked up): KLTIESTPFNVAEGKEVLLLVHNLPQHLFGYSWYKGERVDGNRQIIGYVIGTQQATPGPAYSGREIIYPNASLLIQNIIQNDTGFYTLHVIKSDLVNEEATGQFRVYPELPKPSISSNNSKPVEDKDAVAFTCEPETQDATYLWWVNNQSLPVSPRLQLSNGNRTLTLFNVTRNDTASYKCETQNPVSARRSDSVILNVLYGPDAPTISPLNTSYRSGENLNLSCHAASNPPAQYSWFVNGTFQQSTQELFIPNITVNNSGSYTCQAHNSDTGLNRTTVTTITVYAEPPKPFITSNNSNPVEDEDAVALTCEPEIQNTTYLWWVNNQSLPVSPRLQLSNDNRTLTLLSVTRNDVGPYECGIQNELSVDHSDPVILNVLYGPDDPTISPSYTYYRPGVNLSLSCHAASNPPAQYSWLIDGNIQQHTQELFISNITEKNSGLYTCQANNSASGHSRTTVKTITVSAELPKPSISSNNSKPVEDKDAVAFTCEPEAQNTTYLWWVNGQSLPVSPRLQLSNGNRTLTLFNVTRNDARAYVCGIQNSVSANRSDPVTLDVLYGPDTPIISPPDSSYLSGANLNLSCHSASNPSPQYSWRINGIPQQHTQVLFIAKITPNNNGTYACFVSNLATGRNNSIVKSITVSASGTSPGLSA
Kind of assay: flow cytometry on MKN-45 cells, K2AC100 directly labeled with a fluorochrome, in presence of 300 nM TCB2014. As to the method:
(§1) A binding assay to cells expressing CEACAM5 was performed as described in Example 6. […] An antibody was regarded as non-competitive if 300 nM of the antibody shifts the binding curve of a bispecific antibody of the invention by less than a factor of 3.
(§2) In this experiment, the concentration-dependent binding of CD47×CEACAM5 bispecific antibody K2AC100 was measured in the presence of an anti-CEACAM5 mAbs, either TCB2014 or TCB 2017. This binding was measured at the cell surface of CEACAM5-expressing MKN-45 cells. K2AC100 was directly labeled with a fluorochrome to follow its binding on MKN-45 cells alone (dark line, dark circles), in presence of 300 nM of TCB2014 (dark line, dark triangles) or 30 nM of TCB2017 (dark line, black diamonds). Negative controls (Ctrl) were used (IgG1 in presence of TCB2014 or TCB2017). […] Therefore, the K2AC100 antibody is non-competitive with the TCB2014 and TCB2017 antibodies with respect to CEACAM5 binding.
(A flow cytometer gives signals particle by particle.)

For assay [3], the target named is T2, human CEACAM5 on CEACAM5-expressing …. The assay can be described thus: flow cytometry on MKN-45 cells, K2AC100 directly labeled with a fluorochrome, no competitor. On the procedure:
as §1, §2

Assay [4] shares this target. The assay can be described thus: flow cytometry on MKN-45 cells, K2AC100 directly labeled with a fluorochrome, in presence of 30 nM TCB2017. As to the method: as §1, §2

The values below come from patent US20220195067A1 (LAMKAP BIO BETA, published 2022).

Changes are numbered by the printed parent chain.

B1: K2AC84 (bispecific antibody, human IgG1, kappa, lambda)
heavy: not shown
light 1: QSVLTQPPSVSAAPGQKVTISCSGSSSNIGIGLVSWYQQLPGTAPKLLIYNVNTRPSGIPDRFSGSKSGTSATLGITGLQTGDEADYYCGTWDFSYRVDFGGGTKLTVLGQPKAAPSVTLFPPSSEELQANKATLVCLISDFYPGAVTVAWKADSSPVKAGVETTTPSKQSNNKYAASSYLSLTPEQWKSHRSYSCQVTHEGSTVEKTVAPTECS
light 2: not shown
notes: Kappa-lambda body; also called CD47xCEACAM5 bispecific antibody K2AC84; AC84 (CEACAM5 arm)
Take B1: the “fold higher binding affinity (KD) compared to K2AC22” value in assay [1] amounted to 28 fold.

B2: K2AC100 (bispecific antibody, human IgG1, kappa, lambda)
heavy: not shown
light 1: B1 light 1 with I31Y, V52G, T54I
light 2: not shown
notes: Kappa-lambda body; also called CD47xCEACAM5 bispecific antibody K2AC100; AC100 (CEACAM5 arm)
Usually EC50 (read off the curve) stands for the midpoint of the concentration-response curve. For the molecule B2, the “EC50 (read off the curve)” value in assay [2], in assay [3] and in assay [4] was about 2 µg/mL each time. The “fold higher binding affinity (lower KD) compared to K2AC22” value in assay [1] was 14 fold.
